Test results reported in patent publication US20210284724A1 (I MAB BIOPHARMA US, published 2021).
Positions count from the first letter of the chain named. One block for each binder: values may come before it.

Columns and labels:
mouse CXCL13 = target: T1, mouse CXCL13 (mouse, UniProt O55038 22-109); experiment: ELISA, coated antigen
T1 construct: also called rmCXCL13
T1 sequence (looked up): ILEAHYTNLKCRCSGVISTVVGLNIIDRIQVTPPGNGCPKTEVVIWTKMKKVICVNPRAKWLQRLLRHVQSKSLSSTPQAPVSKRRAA

cynomolgus CXCL13 = target: T2, cynomolgus CXCL13 (cynomolgus, UniProt H6WS58 23-109); experiment: ELISA, coated antigen
T2 construct: also called cynoCXCL13; Cyno CXCL13
T2 sequence: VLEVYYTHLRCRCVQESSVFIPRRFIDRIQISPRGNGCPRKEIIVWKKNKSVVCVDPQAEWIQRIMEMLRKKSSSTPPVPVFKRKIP

human CXCL13 [1] = target: T3, human CXCL13 (human, UniProt O43927 23-109); experiment: ELISA, coated antigen
T3 construct: also called huCXCL13; rhCXCL13
T3 sequence (looked up): T2 sequence with H8S, S32L, V52I, I65M, M68V, K72R, P77L

human CXCL13 [2] = target: T3, human CXCL13; experiment: cell-based blocking ELISA, CXCL13 to CHO-K1-CXCR5
Method: Splenocytes were electro-fused with mouse myeloma cell line SP2/0 cells and plated into 96-well culture plate. The hybridoma supernatants were tested by ELISA binding assay for anti-human CXCL13 binders. Supernatants of positive binding clones were screened for function in blocking of human CXCL13 binding to its […] CXCR5 by Cell-based receptor blocking ELISA assay. Briefly, 5×10⁴ CHO-K1-CXCR5 cells were plated in 96-well plate with 100 μl of culture medium and incubated at 37° C. overnight. Cells were fixed with 100 μl of 2% PFA at RT for 1 hr after washing with PBS for 1 time. Blocking was done with 1% BSA in PBST for 1 hr at RT. Supernatants were diluted with PBS and pre-incubated with equal volume of 0.3 μg/ml human CXCL13 for 30 min at RT. 100 μl of antibody-antigen complex was then transferred into each cell wells for 30 min at RT. The samples were washed with 1×PBST for 3 times and 100 μl of 3 μg/ml of human Mab5261 antibody was add into each well to capture human CXCL13 and anti-human Fc-HRP was used to indirectly detect human CXCL13 when it bound to CHO-K1-CXCR5 cells. […] Reading was done at […].
Those antibodies were purified from hybridoma supernatants by binding with Protein G column and characterized by ELISA binding assays and cell-based blocking ELISA assays. […] 11/20 clones bound to both human CXCL13 and cynomolgus CXCL13 appeared to completely block human CXCL13 to human CXCR5. 11 blockers bound to both huCXCL13 and cynoCXCL13 were produced as chimeric human IgG1 antibodies for further Characterization.

binding result (mouse CXCL13): no binding | EC50 (cynomolgus CXCL13): 0.0245 µg/mL | EC50 (human CXCL13 [1]): 0.0216 µg/mL | IC50 (human CXCL13 [2]): 13.3 µg/mL
B1: 339A9E7 (antibody, V domains shown)
VH: DVQLQESGPGLVKPSQSLSLTCTVTGYSITSDYAWNWNRQFPGNKLEWMGYISYSGDTSYNPSLRSRISITRDTSKNQFFLQLNSVTAEDTAKYYCVAGHFDYWGQGTTLTVSS
VL: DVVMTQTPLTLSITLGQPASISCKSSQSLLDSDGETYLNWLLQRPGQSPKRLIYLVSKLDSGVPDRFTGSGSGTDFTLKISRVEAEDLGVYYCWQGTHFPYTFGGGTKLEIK
notes: Hybridoma mAb

EC50 (mouse CXCL13): 0.0375 µg/mL | binding result (cynomolgus CXCL13): no binding | EC50 (human CXCL13 [1]): 0.0128 µg/mL | IC50 (human CXCL13 [2]): 2.46 µg/mL
B2: 537C8D7 (antibody, V domains shown)
VH: EVQLVESGGGLVLPGRSLKLSCAASGFTFSDYAMAWVRQAPKKGLEWVATVFYDGSDTFYRDSVKGRFTISRDNAKSTLYLQMDSLRSEDTATYYCAREGDYYSRHVYVGYNWFPHWGQGTLVTVSS
VL: DIRMTQSPASLSASLGETVNIECLTSEDINSELAWYQQKPGKFPQFLIYNANSLQDGVPSRFSGSGSGTQYSLKINSLQSEDVATYFCQQYNSYPLTFGSGTELEIK
notes: Hybridoma mAb

binding result (mouse CXCL13): no binding | EC50 (cynomolgus CXCL13): 0.347 µg/mL | EC50 (human CXCL13 [1]): 0.0314 µg/mL | IC50 (human CXCL13 [2]): 0.33 µg/mL
B3: 64C10G1 (antibody, V domains shown)
VH: EVQLVESGGGLVKPGGSLKLSCAASGFTFSSYAMSWVRQTPEKRLEWVATISDGGSDAYYPDNVKGRFTISRDNAKNNLYLQMSHLKSEDTAMYYCARDYYGSGYEDSPMDYWGQGTSVTVSS
VL: DIQMTQSPSSLSASLGGKVTITCKASQDINKYIAWYQHKPGKGPRLLIHYTSTLQPGIPSRFSGSGSGRDYSFSISNLEPEDFATYYCLQYDNLYTFGGGTKLEIK
notes: Hybridoma mAb

EC50 (mouse CXCL13): 0.248 µg/mL | binding result (cynomolgus CXCL13): no binding | EC50 (human CXCL13 [1]): 1.56 µg/mL | IC50 (human CXCL13 [2]): 8.96 µg/mL
B4: 423A6H6 (antibody, V domains shown)
VH: QVTLKESGPGILQPSQTLSLTCTFSGFSLSTYGMGVGWIRQPSGKGLEWLANIWWDDDKYYNPSLQNRLTISKDTSNNQAFLKITNVDTADTATYYCARSELIMPYVPFDYWGQGVRVTVSS
VL: DIQMTQSPSSMSASLGDRVTITCQASQDIDNHLIWFQQKPGKSPRPMIYYATNLANGVPSRFSGSRSGSDYSLTISSLESEDMADYHCLQFKQYPFTFGSGTKLEIK
notes: Hybridoma mAb

EC50 (mouse CXCL13): 7.49 µg/mL | binding result (cynomolgus CXCL13): no binding | EC50 (human CXCL13 [1]): 48.7 µg/mL | IC50 (human CXCL13 [2]): 23.3 µg/mL
B5: 418D3H6 (antibody, V domains shown)
VH: B4 VH with Q66I, D74N, T89A, A90P, I103V, Y111F, V116I, R117M
VL: DIQMTQSPSSLSASLGDRITMTCQASQDIGIELIWFQQKPGKSPWPVIYYTANLASGVPSRFSGSRSGSHYSLTISSLESEDMADYHCLQYKQYPFTFGSGTKLEIK
notes: Hybridoma mAb

EC50 (mouse CXCL13): 0.744 µg/mL | binding result (cynomolgus CXCL13): no binding | EC50 (human CXCL13 [1]): 5.1 µg/mL | IC50 (human CXCL13 [2]): 12.7 µg/mL
B6: 432C12E1 (antibody, V domains shown)
VH: B4 VH with Q66K, L102I, I103V, R117M
VL: B4 VL with D30G, H32D, R66G, D70V
notes: Hybridoma mAb

EC50 (mouse CXCL13): 2.96 µg/mL | binding result (cynomolgus CXCL13): no binding | EC50 (human CXCL13 [1]): 9.85 µg/mL | IC50 (human CXCL13 [2]): 18.2 µg/mL
B7: 442C9H4 (antibody, V domains shown)
VH: B4 VH with T23S, Q66I, D74N, T89A, A90P, I103V, Y111F, V116I, R117M
VL: B5 VL with M21I, E32D
notes: Hybridoma mAb

EC50 (mouse CXCL13): 0.0357 µg/mL | binding result (cynomolgus CXCL13): no binding | EC50 (human CXCL13 [1]): 0.00578 µg/mL | IC50 (human CXCL13 [2]): 8.72 µg/mL
B8: 402H2G12 (antibody, V domains shown)
VH: B4 VH with T85N
VL: B4 VL
notes: Hybridoma mAb

EC50 (mouse CXCL13): 0.202 µg/mL | binding result (cynomolgus CXCL13): no binding | EC50 (human CXCL13 [1]): 1.33 µg/mL | IC50 (human CXCL13 [2]): 7.92 µg/mL
B9: 427C4F11 (antibody, V domains shown)
VH: B4 VH with S30T, Y61S, N67S, K83T, I103V
VL: B4 VL with K42R
notes: Hybridoma mAb

binding result (mouse CXCL13): no binding | EC50 (cynomolgus CXCL13): 0.0619 µg/mL | EC50 (human CXCL13 [1]): 0.0156 µg/mL | IC50 (human CXCL13 [2]): 1.27 µg/mL
B10: 21H12D9 (antibody, V domains shown)
VH: EVQLQQSGPVLVRPGASVKMSCKASGYTFTDYYMNWVKQSHGKSLEWIGVINPNNGGTTYKEKFKGKATLTVDKSSGTAYMELNSLTSEDSAVYYCARDDYDAGYWGQGTTLTVSS
VL: DIVMTQFQKFMSTTVGDRVSITCKASQNVDTAVAWYQHKPGQSPKLLIYSASHRYTGVPDRFTGSGSGTDFTLTISNVQSEDLADYFCQQYTDFPLTFGAGTKLELK
notes: Hybridoma mAb
